Measurements from article PMC4447949, “Structures of the Ets Protein DNA-binding Domains of Transcription Factors Etv1, Etv4, Etv5, and Fev” (The Journal of Biological Chemistry, 2015).

How the values were obtained:
Assay in all cases: EMSA; 0.1 nM probe; 10 mM TCEP; EMSA: 50 mM Tris-HCl pH 7.5, 50 mM NaCl, 2 mM MgCl2, 0.01% Tween 20, 5% glycerol, 1 h at room temperature; proteins reduced with 10 mM TCEP unless stated; 10% native PAGE
Details in all cases: protein: recombinant; tags: N-terminal His6 removed by TEV (leaves SM); blunt
[1] = molecular target: Etv1 Y329S-P427S (human, UniProt P50549 326-429, Y329S;P427S)
Etv1 Y329S-P427S, sequence (P50549 326-429 Y329S/P427S): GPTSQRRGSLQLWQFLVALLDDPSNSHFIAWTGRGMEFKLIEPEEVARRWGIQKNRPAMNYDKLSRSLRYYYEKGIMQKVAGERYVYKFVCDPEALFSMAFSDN

[2] = molecular target: Etv1 S334E (human, UniProt P50549 326-429, S334E)
Etv1 S334E, sequence (P50549 326-429 S334E): as the sequence (P50549 326-429 Y329S/P427S) above, with S4Y, S9E, S102P counted along it

[3] = molecular target: Etv1 R391A (human, UniProt P50549 326-429, R391A)
Etv1 R391A, sequence (P50549 326-429 R391A): as the sequence (P50549 326-429 Y329S/P427S) above, with S4Y, R66A, S102P counted along it

[4] = molecular target: Etv1 Ets domain WT (reduced monomer) (human, UniProt P50549 326-429)
Etv1 Ets domain WT (reduced monomer), sequence (P50549 326-429): as the sequence (P50549 326-429 Y329S/P427S) above, with S4Y, S102P counted along it

[5] = molecular target: Etv1 Y395F (human, UniProt P50549 326-429, Y395F)
Etv1 Y395F, sequence (P50549 326-429 Y395F): as the sequence (P50549 326-429 Y329S/P427S) above, with S4Y, Y70F, S102P counted along it

[6] = molecular target: Etv1 D387A (human, UniProt P50549 326-429, D387A)
Etv1 D387A, sequence (P50549 326-429 D387A): as the sequence (P50549 326-429 Y329S/P427S) above, with S4Y, D62A, S102P counted along it

B1: Etv1ALF/Etv1ALR EMSA probe (dsDNA)
DNA 1: ATCTCACCGGAAGTGTAGCA
DNA 2: TGCTACACTTCCGGTGAGAT
B1 gave a Kd [1] of 0.31 ± 0.06 nM, a Kd [2] of 0.94 ± 0.51 nM and a Kd [3] of 8.6 ± 1.68 nM. It also gave a Kd [4] of 0.59 ± 0.15 nM, a Kd [5] of 1.35 ± 1.05 nM and a Kd [6] of 0.19 ± 0.03 nM.
